By EC50 is commonly meant the concentration at which the effect is half-maximal.

For 1 molecule, EC50 results are on record in patent publication US20210317211A1 (published 2021).

Assay [1] concerns the target T1, mouse TREM2 over-expressed on Expi 293 cells (mouse, UniProt Q99NH8 19-227).
T1 construct: also called Expi-mTREM2; mTREM2
T1 sequence: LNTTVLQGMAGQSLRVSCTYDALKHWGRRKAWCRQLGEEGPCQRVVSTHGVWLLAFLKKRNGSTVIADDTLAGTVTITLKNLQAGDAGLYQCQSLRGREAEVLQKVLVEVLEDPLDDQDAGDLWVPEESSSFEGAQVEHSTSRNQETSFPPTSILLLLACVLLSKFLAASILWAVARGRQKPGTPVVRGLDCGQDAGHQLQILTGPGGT
Briefly: flow cytometry on Expi 293 cells over-expressing mouse TREM2; Alexa Fluor 647 secondary antibody. As for the experimental part: (§1) 100,000 to 500,000 Expi 293 parental cells or Expi 293 cells over-expressing human or mouse TREM2 were plated in […] well plates and dead cells were stained with Zombie Near Infrared (Biolegend). Titrations of indicated unconjugated antibodies were incubated with these cells within a range of 0 ug/ml to 10 ug/ml in a 1:3 dilution range across 8-10 points. Dependent on their isotype (higG1 or mIgG2a), these primary unconjugated antibodies were detected with Alexa Fluor 647 conjugated anti-human Fc or anti-mouse Fc secondary antibodies (Jackson Immunoresearch). Alexa Fluor 647 signal was measured by flow cytometry (BD Fortessa X-14, BD Biosciences). EC50 values were calculated by curve fitting signal generated from antibodies binding to over-expressing cells over background fluorescence generated from HEK293 parental cells in Graphpad Prism (Graphpad Software).
For orientation: Flow cytometry measures light scatter and fluorescence of single cells or particles in a stream.

For assay [2], the target named is T2, human TREM2 over-expressed on Expi 293 cells (human, UniProt Q9NZC2 19-230).
T2 construct: also called Expi-hTREM2; hTREM2
T2 sequence: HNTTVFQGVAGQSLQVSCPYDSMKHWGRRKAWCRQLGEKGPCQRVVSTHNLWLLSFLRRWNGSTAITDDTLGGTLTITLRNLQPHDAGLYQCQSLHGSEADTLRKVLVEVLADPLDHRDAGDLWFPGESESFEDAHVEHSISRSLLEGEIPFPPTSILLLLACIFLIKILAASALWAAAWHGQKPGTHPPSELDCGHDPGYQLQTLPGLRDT
Put plainly: flow cytometry on Expi 293 cells over-expressing human TREM2; Alexa Fluor 647 secondary antibody. As for the experimental part:
as §1

B1: Rat IgG2B Clone #237920 (R&D Systems Cat #MAB17291) (antibody, V domains shown)
VH: EVQLVESGGGLVQPGRSLKLSCAASGFTFSNYYMAWVRQAPTKGLEWVASLTNSGGSTYYRDSVKGRFTLSRDNAKSTLYLQMDSLRSEDTATYYCTREWAGSGYFDYWGQGVMVTVSS
VL: NIVMTQSPKSMSLSVGDRVTMNCKASQNVGNNLAWYQQKPGQSPKLLLYYTSNRFTGVPDRFTGGGYGTDFTLTINSVQAEDAAFYYCQRIYNSPWTFGGGTKLELKR
notes: also called mAb 237920
In the case of B1, the EC50 was 0.9 nM in assay [1] and 0.6 nM in assay [2].
